{"source": "IntAct's records for PubMed 11729193", "parents": {"B1": {"name": "Cell death abnormality protein 1 (Caenorhabditis elegans), Q9XWD6 (parent)", "chain": "MRLILLVLLATWQVVVDTRAPTFPDKLTQQLQQQGTTEPQGDHVCTVKTIVDDYELKKVIHTVVYNDTEQCLNPLTGFQCTVEKRGQKASYQRQLVKKEKYVKQCCDGYYQTKDHFCLPDCNPPCKKGKCIEPGKCECDPGYGGKYCASSCSVGTWGLGCSKSCDCENGANCDPELGTCICTSGFQGERCEKPCPDNKWGPNCVKSCPCQNGGKCNKEGKCVCSDGWGGEFCLNKCEEGKFGAECKFECNCQNGATCDNTNGKCICKSGYHGALCENECSVGFFGSGCTQKCDCLNNQNCDSSSGECKCIGWTGKHCDIGCSRGRFGLQCKQNCTCPGLEFSDSNASCDAKTGQCQCESGYKGPKCDERKCDAEQYGADCSKTCTCVRENTLMCAPNTGFCRCKPGFYGDNCELACSKDSYGPNCEKQAMCDWNHASECNPETGSCVCKPGRTGKNCSEPCPLDFYGPNCAHQCQCNQRGVGCDGADGKCQCDRGWTGHRCEHHCPADTFGANCEKRCKCPKGIGCDPITGECTCPAGLQGANCDIGCPEGSYGPGCKLHCKCVNGKCDKETGECTCQPGFFGSDCSTTCSKGKYGESCELSCPCSDASCSKQTGKCLCPLGTKGVSCDQKCDPNTFGFLCQETVTPSPCASTDPKNGVCLSCPPGSSGIHCEHNCPAGSYGDGCQQVCSCADGHGCDPTTGECICEPGYHGKTCSEKCPDGKYGYGCALDCPKCASGSTCDHINGLCICPAGLEGALCTRPCSAGFWGNGCRQVCRCTSEYKQCNAQTGECSCPAGFQGDRCDKPCEDGYYGPDCIKKCKCQGTATSSCNRVSGACHCHPGFTGEFCHALCPESTFGLKCSKECPKDGCGDGYECDAAIGCCHVDQMSCGKAKQEFEALNGAGRSTGLTWFFVLLIVALCGGLGLIALFYRNKYQKEKDPDMPTVSFHKAPNNDEGREFQNPLYSRQSVFPDSDAFSSENNGNHQGGPPNGLLTLEEEELENKKIHGRSAAGRGNNDYASLDEVAGEGSSSSASASASRRGLNSSEQSRRPLLEEHDEEEFDEPHENSISPAHAVTTSNHNENPYADISSPDPVTQNSANKKRAQDNLYT", "partner": "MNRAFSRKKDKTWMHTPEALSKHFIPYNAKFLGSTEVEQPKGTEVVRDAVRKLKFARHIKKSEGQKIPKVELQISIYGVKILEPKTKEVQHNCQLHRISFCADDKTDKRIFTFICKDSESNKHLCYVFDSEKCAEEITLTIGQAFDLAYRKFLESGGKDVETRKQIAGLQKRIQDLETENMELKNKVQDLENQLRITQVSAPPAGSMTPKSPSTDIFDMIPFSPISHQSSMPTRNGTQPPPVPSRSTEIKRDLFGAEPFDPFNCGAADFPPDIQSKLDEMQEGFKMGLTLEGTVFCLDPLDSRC"}, "B2": {"name": "Cell death abnormality protein 1 (Caenorhabditis elegans), Q9XWD6 (parent)", "chain": "B1 chain", "partner": "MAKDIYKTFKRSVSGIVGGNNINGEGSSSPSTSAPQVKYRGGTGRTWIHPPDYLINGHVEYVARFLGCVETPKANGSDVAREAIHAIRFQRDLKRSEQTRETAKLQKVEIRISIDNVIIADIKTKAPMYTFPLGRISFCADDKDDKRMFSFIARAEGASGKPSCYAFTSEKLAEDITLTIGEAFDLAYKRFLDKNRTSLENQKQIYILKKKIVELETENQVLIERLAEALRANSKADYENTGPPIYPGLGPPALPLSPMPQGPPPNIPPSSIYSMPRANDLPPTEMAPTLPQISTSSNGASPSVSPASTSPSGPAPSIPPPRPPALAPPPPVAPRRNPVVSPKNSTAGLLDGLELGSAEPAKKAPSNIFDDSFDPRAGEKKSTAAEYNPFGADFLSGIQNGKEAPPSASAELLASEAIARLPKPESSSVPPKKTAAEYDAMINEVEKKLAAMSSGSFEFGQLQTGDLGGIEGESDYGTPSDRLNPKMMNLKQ"}}, "data": [{"variants_of": "B1", "settings": "with gulp1_human GULP1, Q9UBP9", "values": [{"variant": "N962A", "effect of a mutation on the interaction": "disrupting interaction strength"}]}, {"variants_of": "B2", "settings": "with ced6_caeel ced-6, O76337", "values": [{"variant": "N962A", "effect of a mutation on the interaction": "disrupting interaction strength"}]}]}
